Source: paper PMC8615095
Like-named read-outs stand apart in the source and are kept apart here.

Experiments:
[1] = target: membrane-bound IgE-Fc (IgE-Fc-B-cell receptor: 3xFLAG-Cε2-Cε3-Cε4-EMPD-transmembrane-intracellular domain)
[2] = target: membrane-bound IgE-Fc (IgE-Fc-B-cell receptor: 3xFLAG-Cε2-Cε3-Cε4-EMPD-transmembrane-intracellular domain); assay: flow cytometry on cells; graded concentrations of His-tagged BiTE on Ramos-Fcε (doxycycline-induced), empty-vector Ramos, Jurkat E6-1 or TIB-153 cells, 30 min on ice in 2% BSA-PBS; detected with anti-pentahis-AlexaFluor 488 (Ramos) or 647 (Jurkat, TIB-153); EC50 from geometric mean fluorescence
[3] = target: membrane-bound IgE-Fc (IgE-Fc-B-cell receptor: 3xFLAG-Cε2-Cε3-Cε4-EMPD-transmembrane-intracellular domain); remark: listed apart in the source
[4] = target: membrane-bound IgE-Fc (IgE-Fc-B-cell receptor: 3xFLAG-Cε2-Cε3-Cε4-EMPD-transmembrane-intracellular domain); remark: listed apart in the source
[5] = target: CD19 (Homo sapiens (endogenous, Ramos EHRB)) (UniProt P15391)
[6] = target: CD19 (Homo sapiens (endogenous, Ramos EHRB)) (UniProt P15391); assay: flow cytometry on cells; graded concentrations of His-tagged BiTE on Ramos-Fcε (doxycycline-induced), empty-vector Ramos, Jurkat E6-1 or TIB-153 cells, 30 min on ice in 2% BSA-PBS; detected with anti-pentahis-AlexaFluor 488 (Ramos) or 647 (Jurkat, TIB-153); EC50 from geometric mean fluorescence
[7] = target: CD19 (Homo sapiens (endogenous, Ramos EHRB)) (UniProt P15391); assay: as above; remark: listed apart in the source

CD19 (Homo sapiens (endogenous, Ramos EHRB)), sequence (P15391 20-556): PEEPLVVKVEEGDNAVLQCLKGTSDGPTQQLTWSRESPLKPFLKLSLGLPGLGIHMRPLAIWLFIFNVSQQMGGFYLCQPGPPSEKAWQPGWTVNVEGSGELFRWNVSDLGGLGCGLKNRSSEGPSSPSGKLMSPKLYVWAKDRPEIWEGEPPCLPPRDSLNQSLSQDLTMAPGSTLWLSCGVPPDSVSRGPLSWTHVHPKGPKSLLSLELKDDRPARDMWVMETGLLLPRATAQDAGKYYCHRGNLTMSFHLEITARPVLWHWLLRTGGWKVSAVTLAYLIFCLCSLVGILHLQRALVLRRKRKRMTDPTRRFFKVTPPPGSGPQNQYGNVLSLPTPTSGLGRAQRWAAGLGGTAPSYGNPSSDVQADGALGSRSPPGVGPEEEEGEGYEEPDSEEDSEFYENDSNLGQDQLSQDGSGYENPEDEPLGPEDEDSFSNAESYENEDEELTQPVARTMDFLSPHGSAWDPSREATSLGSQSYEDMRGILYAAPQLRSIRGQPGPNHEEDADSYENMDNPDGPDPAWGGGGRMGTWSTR

Row | Substance | NFAT-luciferase reporter in CD3-overexpressing T cells, fold induction with Ramos-Fcε target cells, E:T 5:1, at 80 pM [1] [fold] | EC50 [2] [nM] | IL-2 promoter-luciferase reporter in CD3-overexpressing T cells, fold activation with Ramos-Fcε target cells, E:T 2.5, at 400 pM [3] [fold] | also measured
1 | omalizumab-based BiTE (anti-IgE scFv of omalizumab fused to anti-CD3ε scFv) (bispecific antibody) | 11 | 2 | 2 | NFAT-luciferase reporter in CD3-overexpressing T cells, fold activation with Ramos-Fcε target cells, E:T 1:1, at 80 pM [4]: 5 fold
2 | blinatumomab (anti-CD19 scFv fused to anti-CD3ε scFv, with C-terminal 8-His-tag) (bispecific antibody) | – | – | – | NFAT-luciferase reporter in CD3-overexpressing T cells with Ramos-Fcε target cells, E:T 5:1, dilutions of blinatumomab from 1 nM; EC50 of T-cell activation [5]: 0.014 nM; EC50 [6]: 2.5 nM; EC50 [7]: 5 nM
3 | MEDI4212-based BiTE (anti-IgE scFv of MEDI4212 fused to anti-CD3ε scFv) (bispecific antibody) | 9 | 0.4 | 4 | NFAT-luciferase reporter in CD3-overexpressing T cells, fold activation with Ramos-Fcε target cells, E:T 1:1, at 400 pM [4]: 10 fold
4 | quilizumab-based BiTE (anti-IgE EMPD scFv of quilizumab fused to anti-CD3ε scFv) (bispecific antibody) | – | 40 | – | –
5 | ligelizumab-based BiTE (anti-IgE scFv of ligelizumab fused to anti-CD3ε scFv) (bispecific antibody) | – | 0.4 | – | NFAT-luciferase reporter in CD3-overexpressing T cells, fold induction with Ramos-Fcε target cells, E:T 5:1, at 400 pM [1]: 47 fold; IL-2 promoter-luciferase reporter in CD3-overexpressing T cells, fold specific activation with Ramos-Fcε target cells, E:T 2.5, at 2 nM [3]: 7 fold; NFAT-luciferase reporter in CD3-overexpressing T cells, fold activation with Ramos-Fcε target cells, E:T 1:1, 400 pM (59-fold) to 2000 pM [4]: 162 fold
